Holding throughout (assay): EMSA
Series [1] deals with T1, Runx1 Runt domain (CBF alpha2);CBFbeta (human?;human?, UniProt Q01196;Q13951 50-183;2-135, |).
Series [2] concerns the target T1, Runx1 Runt domain (CBF alpha2);CBFbeta. This is another data set of the same source.
Series [3] has the same target. The source holds these as a separate data set.
The target is the same in series [4]. The source holds these as a separate data set.

Experimental findings from PMC2952845 are described below.

Like-named read-outs stand apart in the source and are kept apart here.

T1 sequence (Q01196 50-183, chain 1 of 2): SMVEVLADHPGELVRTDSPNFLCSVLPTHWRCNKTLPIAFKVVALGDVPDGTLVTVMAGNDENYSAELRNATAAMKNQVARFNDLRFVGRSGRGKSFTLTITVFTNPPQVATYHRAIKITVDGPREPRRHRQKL
T1 sequence (Q13951 2-135, chain 2 of 2): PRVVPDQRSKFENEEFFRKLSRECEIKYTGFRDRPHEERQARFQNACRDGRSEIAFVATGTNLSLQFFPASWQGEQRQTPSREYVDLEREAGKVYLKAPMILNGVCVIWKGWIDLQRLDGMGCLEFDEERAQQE

B1: GM450Δ452 (dsDNA)
DNA 1: AGATGTGTGGCTGCGTAGAAAC
DNA 2: AGGTTTCTACGCAGCCACACAT
For the molecule B1, the binding result in series [1] is listed as “binds”.

B2: GM450Δ443/452 (dsDNA)
DNA 1: AGATCTCTCACTGCGTAGAAAC
DNA 2: AGGTTTCTACGCAGTGAGAGAT
B2: in series [2], the binding result was “no binding”.

B3: Crystal palindrome (dsDNA)
DNA 1: AGATGTGCGGTCGACCGCAAAC
DNA 2: AGGTTTGCGGTCGACCGCACAT
B3: in series [3], the binding result is listed as “binds”.

B4: GM450Δ443 (dsDNA)
DNA 1: AGATCTCTCACTGCCCACAAAC
DNA 2: AGGTTTGTGGGCAGTGAGAGAT
As to B4, the binding result in series [1] is listed as “binds”.

B5: WT GM450 (dsDNA)
DNA 1: AGATGTGTGGCTGCCCACAAAC
DNA 2: AGGTTTGTGGGCAGCCACACAT
For B5, the binding result in series [4] was “binds”.
